Experimental data as given in article PMC2387164, “A GATA4/WT1 cooperation regulates transcription of genes required for mammalian sex determination and differentiation”.

Columns and labels:
[1] = target: WT1(+KTS) overexpressed in HeLa cells (mouse) (UniProt P22561)
[2] = target: T1, GATA4 (UniProt Q08369 1-441); assay: EMSA; EMSA conditions as described previously (ref. 48); buffer, salt, pH and temperature not given; details: protein: ivt; label: 32P (as probe); 5' overhang 4 nt (GATC) both ends
T1 sequence (Q08369 whole entry): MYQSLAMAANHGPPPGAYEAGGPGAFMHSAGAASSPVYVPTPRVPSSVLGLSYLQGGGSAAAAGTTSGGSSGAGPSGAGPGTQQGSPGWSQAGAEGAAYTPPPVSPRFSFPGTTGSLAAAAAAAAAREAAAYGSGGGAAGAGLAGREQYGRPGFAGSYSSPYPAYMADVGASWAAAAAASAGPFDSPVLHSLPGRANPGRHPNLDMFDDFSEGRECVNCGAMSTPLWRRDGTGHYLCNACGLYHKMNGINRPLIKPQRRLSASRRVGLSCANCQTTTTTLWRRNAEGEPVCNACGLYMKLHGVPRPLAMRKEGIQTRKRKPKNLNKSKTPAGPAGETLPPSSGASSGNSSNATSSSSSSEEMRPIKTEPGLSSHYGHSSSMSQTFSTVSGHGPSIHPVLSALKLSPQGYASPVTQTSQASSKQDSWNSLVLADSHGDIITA

[3] = target: T1, GATA4; assay: competition; competitor of labeled GATA site 1; EMSA conditions as described previously (ref. 48); buffer, salt, pH and temperature not given; details: protein: ivt; 5' overhang 4 nt (GATC) both ends
[4] = target: WT1(-KTS) (mouse, UniProt P22561-4 1-446); assay: EMSA; blocked by 10-fold excess self competitor; EMSA conditions as described previously (ref. 48); buffer, salt, pH and temperature not given; details: protein: ivt; label: 32P (as probe); 5' overhang 4 nt (GGAT on strand 1, GATC on strand 2)
WT1(-KTS), sequence (P22561 other isoform, or with tags, fused parts or gaps): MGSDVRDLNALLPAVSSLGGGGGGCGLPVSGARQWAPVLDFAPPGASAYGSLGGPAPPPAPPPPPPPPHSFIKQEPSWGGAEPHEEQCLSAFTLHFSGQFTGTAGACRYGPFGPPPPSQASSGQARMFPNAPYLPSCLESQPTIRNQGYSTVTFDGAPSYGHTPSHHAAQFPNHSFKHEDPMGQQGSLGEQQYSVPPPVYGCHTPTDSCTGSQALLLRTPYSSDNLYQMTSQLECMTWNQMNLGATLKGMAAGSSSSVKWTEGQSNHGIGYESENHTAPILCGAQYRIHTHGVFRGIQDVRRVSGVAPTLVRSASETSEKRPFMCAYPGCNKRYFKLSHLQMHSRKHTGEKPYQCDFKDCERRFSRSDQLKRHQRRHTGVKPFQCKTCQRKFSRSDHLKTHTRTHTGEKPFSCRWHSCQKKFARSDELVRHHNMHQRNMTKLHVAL

[5] = target: WT1(+KTS) (mouse, UniProt P22561 1-449); assay: as above; details: protein: ivt; label: 32P (as probe); 5' overhang 4 nt (GGAT on strand 1, GATC on strand 2)
WT1(+KTS), sequence (P22561 whole entry): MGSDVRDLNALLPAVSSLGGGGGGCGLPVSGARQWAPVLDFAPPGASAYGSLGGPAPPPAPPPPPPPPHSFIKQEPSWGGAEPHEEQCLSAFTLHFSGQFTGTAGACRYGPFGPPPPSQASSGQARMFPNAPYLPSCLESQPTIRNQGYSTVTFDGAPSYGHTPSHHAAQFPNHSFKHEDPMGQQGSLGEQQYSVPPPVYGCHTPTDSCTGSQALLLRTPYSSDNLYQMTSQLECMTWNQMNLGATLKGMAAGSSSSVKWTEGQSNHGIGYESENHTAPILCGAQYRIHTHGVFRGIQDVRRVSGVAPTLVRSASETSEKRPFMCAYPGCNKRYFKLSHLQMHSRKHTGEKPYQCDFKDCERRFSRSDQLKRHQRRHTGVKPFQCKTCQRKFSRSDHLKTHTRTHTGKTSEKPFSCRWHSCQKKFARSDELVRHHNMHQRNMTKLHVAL

WT1(+KTS) overexpressed in HeLa cells (mouse), sequence (P22561 whole entry): as above

Molecule: GATA4 overexpressed in HeLa cells (from UniProt P46152 1-440) (natural protein)
- luciferase reporter, -1090 bp mouse Sry promoter, co-transfected HeLa cells, fold activation over control [1]: 30 fold
- luciferase reporter, -1400 bp pig SRY promoter, co-transfected HeLa cells, fold activation over control [1]: 50 fold

B1: pig SRY GATA site 1 (dsDNA)
DNA 1: GATCCGCCTTATTATCATAATAAA
DNA 2: GATCTTTATTATGATAATAAGGCG
- binding result [2]: binds

B2: pig SRY GATA site 2 (dsDNA)
DNA 1: GATCCATTGGGTTATCTTGAATCA
DNA 2: GATCTGATTCATGATAACCCAATG
- binding result [3]: binds

B3: pig SRY GATA site 3 (dsDNA)
DNA 1: GATCCACATACTGATAATCATCAA
DNA 2: GATCTTGATGATTATCAGTATGTG
- binding result [3]: binds

B4: pig SRY GATA site 4 (dsDNA)
DNA 1: GATCCCCAAGGTTATCTGTTTTTA
DNA 2: GATCTAAAAACAGATAACCTTGGG
- binding result [3]: binds

B5: human AMH distal WT1 element (dsDNA)
DNA 1: GGATCACTGGGGAGGGAGATAGGA
DNA 2: GATCTCCTATCTCCCTCCCCAGTG
- binding result [4]: binds
- binding result [5]: binds
